According to patent publication US20160272693A1 (ZEALAND PHARMA A S, published 2016):
Like-named read-outs stand apart in the source and are kept apart here. *1 amine or outer side, *2 acyl side, *3 side chain or, on linkers, in order; H or OH if unused. Bridges are numbered along the chain shown (N, C = ends). [ ]: non-standard residue; d: D form. The star is where a group is joined. C20 diacid = O=C(O)CCCCCCCCCCCCCCCCCCC(=O)*; γGlu = O=C(O)[C@H](CCC(=O)[*:2])N[*:1]; Hyp = O=C(O)[C@@H]1C[C@@H](O)CN1; NMeI = CC[C@H](C)[C@H](NC)C(=O)O; Aad = N[C@@H](CCCC(=O)O)C(=O)O; Sar = CNCC(=O)O

Legend:
[1] = biological target: T1, human amylin receptor 3 (hAMYR3), hCTR2 co-expressed with human receptor activity modifying protein 3 (hRAMP3) (human, UniProt P30988 25-474; O60896 24-148); experiment: cell-based or functional assay
T1 sequence (looked up) 1: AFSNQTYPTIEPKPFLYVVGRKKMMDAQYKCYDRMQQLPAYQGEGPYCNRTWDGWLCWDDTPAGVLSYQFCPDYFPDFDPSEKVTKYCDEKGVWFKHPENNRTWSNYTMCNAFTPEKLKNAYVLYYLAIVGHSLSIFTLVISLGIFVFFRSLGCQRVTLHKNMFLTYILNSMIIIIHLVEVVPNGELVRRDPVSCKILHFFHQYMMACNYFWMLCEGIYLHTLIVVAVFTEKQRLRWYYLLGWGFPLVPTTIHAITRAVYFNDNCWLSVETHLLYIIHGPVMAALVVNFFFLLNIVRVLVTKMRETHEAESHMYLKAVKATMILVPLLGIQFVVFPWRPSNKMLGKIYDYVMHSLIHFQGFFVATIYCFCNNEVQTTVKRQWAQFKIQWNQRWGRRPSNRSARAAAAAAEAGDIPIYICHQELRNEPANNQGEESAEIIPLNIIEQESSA
T1 sequence (looked up) 2: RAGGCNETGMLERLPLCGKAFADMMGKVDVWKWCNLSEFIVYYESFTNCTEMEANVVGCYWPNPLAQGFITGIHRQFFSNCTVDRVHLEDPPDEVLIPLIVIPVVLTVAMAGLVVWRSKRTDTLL

[2] = biological target: T1, human amylin receptor 3 (hAMYR3), hCTR2 …; experiment: cell-based or functional assay; remark: listed apart in the source

B1: [19CD]-isoGlu-R-C( )-GTAT-C( )-ATERLAHFLTRSSF-Gly(Me)-A-Ile(Me)-LSSTEVGSTT-Hyp-NH2 (Compd. 48) (peptide)
peptide: {C20 diacid}-[γGlu]RCGTATCATERLAHFLTRSSF[Sar]A[NMeI]LSSTEVGSTT[Hyp]-NH2
modifications: disulfide 3-8
SMILES: CC[C@H](C)[C@@H](C(=O)N[C@@H](CC(C)C)C(=O)N[C@@H](CO)C(=O)N[C@@H](CO)C(=O)N[C@H](C(=O)N[C@@H](CCC(=O)O)C(=O)N[C@H](C(=O)NCC(=O)N[C@@H](CO)C(=O)N[C@H](C(=O)N[C@H](C(=O)N1C[C@H](O)C[C@H]1C(N)=O)[C@@H](C)O)[C@@H](C)O)C(C)C)[C@@H](C)O)N(C)C(=O)[C@H](C)NC(=O)CN(C)C(=O)[C@H](Cc1ccccc1)NC(=O)[C@H](CO)NC(=O)[C@H](CO)NC(=O)[C@H](CCCNC(=N)N)NC(=O)[C@@H](NC(=O)[C@H](CC(C)C)NC(=O)[C@H](Cc1ccccc1)NC(=O)[C@H](Cc1c[nH]cn1)NC(=O)[C@H](C)NC(=O)[C@H](CC(C)C)NC(=O)[C@H](CCCNC(=N)N)NC(=O)[C@H](CCC(=O)O)NC(=O)[C@@H](NC(=O)[C@H](C)NC(=O)[C@@H]1CSSC[C@H](NC(=O)[C@H](CCCNC(=N)N)NC(=O)CC[C@H](NC(=O)CCCCCCCCCCCCCCCCCCC(=O)O)C(=O)O)C(=O)NCC(=O)N[C@@H]([C@@H](C)O)C(=O)N[C@@H](C)C(=O)N[C@@H]([C@@H](C)O)C(=O)N1)[C@@H](C)O)[C@@H](C)O
- hAMYR3 EC50 (nM); cAMP induction [1]: 0.26 nM

B2: [19CD]-isoGlu-R-C( )-QTAT-C( )-ATDRLA-Aad-FLQRSSF-Gly(Me)-A-Ile(Me)-LSSTEVGSNT-Hyp-NH2 (Compd. 89) (peptide)
peptide: {C20 diacid}-[γGlu]RCQTATCATDRLA[Aad]FLQRSSF[Sar]A[NMeI]LSSTEVGSNT[Hyp]-NH2
modifications: disulfide 3-8
SMILES: CC[C@H](C)[C@@H](C(=O)N[C@@H](CC(C)C)C(=O)N[C@@H](CO)C(=O)N[C@@H](CO)C(=O)N[C@H](C(=O)N[C@@H](CCC(=O)O)C(=O)N[C@H](C(=O)NCC(=O)N[C@@H](CO)C(=O)N[C@@H](CC(N)=O)C(=O)N[C@H](C(=O)N1C[C@H](O)C[C@H]1C(N)=O)[C@@H](C)O)C(C)C)[C@@H](C)O)N(C)C(=O)[C@H](C)NC(=O)CN(C)C(=O)[C@H](Cc1ccccc1)NC(=O)[C@H](CO)NC(=O)[C@H](CO)NC(=O)[C@H](CCCNC(=N)N)NC(=O)[C@H](CCC(N)=O)NC(=O)[C@H](CC(C)C)NC(=O)[C@H](Cc1ccccc1)NC(=O)[C@H](CCCC(=O)O)NC(=O)[C@H](C)NC(=O)[C@H](CC(C)C)NC(=O)[C@H](CCCNC(=N)N)NC(=O)[C@H](CC(=O)O)NC(=O)[C@@H](NC(=O)[C@H](C)NC(=O)[C@@H]1CSSC[C@H](NC(=O)[C@H](CCCNC(=N)N)NC(=O)CC[C@H](NC(=O)CCCCCCCCCCCCCCCCCCC(=O)O)C(=O)O)C(=O)N[C@@H](CCC(N)=O)C(=O)N[C@@H]([C@@H](C)O)C(=O)N[C@@H](C)C(=O)N[C@@H]([C@@H](C)O)C(=O)N1)[C@@H](C)O
- hAMYR3 EC50 (nM); cAMP induction [1]: 0.2 nM
- hAMYR3 EC50 (nM); cAMP induction [2]: 0.2 nM

B3: [19CD]-isoGlu-R-C( )-QTAT-C( )-ATERLAHFLQRSSNNF-Gly(Me)-A-Ile(Me)-LSSTEVGSNT-Hyp-NH2 (Compd. 99) (peptide)
peptide: {C20 diacid-γGlu}-RCQTATCATERLAHFLQRSSNNF[Sar]A[NMeI]LSSTEVGSNT[Hyp]-NH2
modifications: disulfide 2-7
SMILES: CC[C@H](C)[C@@H](C(=O)N[C@@H](CC(C)C)C(=O)N[C@@H](CO)C(=O)N[C@@H](CO)C(=O)N[C@H](C(=O)N[C@@H](CCC(=O)O)C(=O)N[C@H](C(=O)NCC(=O)N[C@@H](CO)C(=O)N[C@@H](CC(N)=O)C(=O)N[C@H](C(=O)N1C[C@H](O)C[C@H]1C(N)=O)[C@@H](C)O)C(C)C)[C@@H](C)O)N(C)C(=O)[C@H](C)NC(=O)CN(C)C(=O)[C@H](Cc1ccccc1)NC(=O)[C@H](CC(N)=O)NC(=O)[C@H](CC(N)=O)NC(=O)[C@H](CO)NC(=O)[C@H](CO)NC(=O)[C@H](CCCNC(=N)N)NC(=O)[C@H](CCC(N)=O)NC(=O)[C@H](CC(C)C)NC(=O)[C@H](Cc1ccccc1)NC(=O)[C@H](Cc1c[nH]cn1)NC(=O)[C@H](C)NC(=O)[C@H](CC(C)C)NC(=O)[C@H](CCCNC(=N)N)NC(=O)[C@H](CCC(=O)O)NC(=O)[C@@H](NC(=O)[C@H](C)NC(=O)[C@@H]1CSSC[C@H](NC(=O)[C@H](CCCNC(=N)N)NC(=O)CC[C@H](NC(=O)CCCCCCCCCCCCCCCCCCC(=O)O)C(=O)O)C(=O)N[C@@H](CCC(N)=O)C(=O)N[C@@H]([C@@H](C)O)C(=O)N[C@@H](C)C(=O)N[C@@H]([C@@H](C)O)C(=O)N1)[C@@H](C)O
- hAMYR3 EC50 (nM); cAMP induction [2]: 0.59 nM

B4: [19CD]-isoGlu-R-C( )-QTAT-C( )-ATERLAHFLQRSSF-Gly(Me)-A-Ile(Me)-LSSTEVGSNT-Hyp-NH2 (Compd. 57) (peptide)
peptide: {C20 diacid-γGlu}-RCQTATCATERLAHFLQRSSF[Sar]A[NMeI]LSSTEVGSNT[Hyp]-NH2
modifications: disulfide 2-7
SMILES: CC[C@H](C)[C@@H](C(=O)N[C@@H](CC(C)C)C(=O)N[C@@H](CO)C(=O)N[C@@H](CO)C(=O)N[C@H](C(=O)N[C@@H](CCC(=O)O)C(=O)N[C@H](C(=O)NCC(=O)N[C@@H](CO)C(=O)N[C@@H](CC(N)=O)C(=O)N[C@H](C(=O)N1C[C@H](O)C[C@H]1C(N)=O)[C@@H](C)O)C(C)C)[C@@H](C)O)N(C)C(=O)[C@H](C)NC(=O)CN(C)C(=O)[C@H](Cc1ccccc1)NC(=O)[C@H](CO)NC(=O)[C@H](CO)NC(=O)[C@H](CCCNC(=N)N)NC(=O)[C@H](CCC(N)=O)NC(=O)[C@H](CC(C)C)NC(=O)[C@H](Cc1ccccc1)NC(=O)[C@H](Cc1c[nH]cn1)NC(=O)[C@H](C)NC(=O)[C@H](CC(C)C)NC(=O)[C@H](CCCNC(=N)N)NC(=O)[C@H](CCC(=O)O)NC(=O)[C@@H](NC(=O)[C@H](C)NC(=O)[C@@H]1CSSC[C@H](NC(=O)[C@H](CCCNC(=N)N)NC(=O)CC[C@H](NC(=O)CCCCCCCCCCCCCCCCCCC(=O)O)C(=O)O)C(=O)N[C@@H](CCC(N)=O)C(=O)N[C@@H]([C@@H](C)O)C(=O)N[C@@H](C)C(=O)N[C@@H]([C@@H](C)O)C(=O)N1)[C@@H](C)O
- hAMYR3 EC50 (nM); cAMP induction [1]: 0.11 nM
- hAMYR3 EC50 (nM); cAMP induction [2]: 0.11 nM

B5: [19CD]-isoGlu-R-C( )-NTAT-C( )-ATQRLADFLQRSSF-Gly(Me)-A-Ile(Me)-LSSTEVGSNT-Hyp-NH2 (Compd. 49) (peptide)
peptide: {C20 diacid-γGlu}-RCNTATCATQRLADFLQRSSF[Sar]A[NMeI]LSSTEVGSNT[Hyp]-NH2
modifications: disulfide 2-7
SMILES: CC[C@H](C)[C@@H](C(=O)N[C@@H](CC(C)C)C(=O)N[C@@H](CO)C(=O)N[C@@H](CO)C(=O)N[C@H](C(=O)N[C@@H](CCC(=O)O)C(=O)N[C@H](C(=O)NCC(=O)N[C@@H](CO)C(=O)N[C@@H](CC(N)=O)C(=O)N[C@H](C(=O)N1C[C@H](O)C[C@H]1C(N)=O)[C@@H](C)O)C(C)C)[C@@H](C)O)N(C)C(=O)[C@H](C)NC(=O)CN(C)C(=O)[C@H](Cc1ccccc1)NC(=O)[C@H](CO)NC(=O)[C@H](CO)NC(=O)[C@H](CCCNC(=N)N)NC(=O)[C@H](CCC(N)=O)NC(=O)[C@H](CC(C)C)NC(=O)[C@H](Cc1ccccc1)NC(=O)[C@H](CC(=O)O)NC(=O)[C@H](C)NC(=O)[C@H](CC(C)C)NC(=O)[C@H](CCCNC(=N)N)NC(=O)[C@H](CCC(N)=O)NC(=O)[C@@H](NC(=O)[C@H](C)NC(=O)[C@@H]1CSSC[C@H](NC(=O)[C@H](CCCNC(=N)N)NC(=O)CC[C@H](NC(=O)CCCCCCCCCCCCCCCCCCC(=O)O)C(=O)O)C(=O)N[C@@H](CC(N)=O)C(=O)N[C@@H]([C@@H](C)O)C(=O)N[C@@H](C)C(=O)N[C@@H]([C@@H](C)O)C(=O)N1)[C@@H](C)O
- hAMYR3 EC50 (nM); cAMP induction [1]: 0.15 nM

B6: [19CD]-isoGlu-R-C( )-GTAT-C( )-ATERLA-Aad-FLQRSSF-Gly(Me)-A-Ile(Me)-LSSTEVGSNT-Hyp-NH2 (Compd. 55) (peptide)
peptide: {C20 diacid}-[γGlu]RCGTATCATERLA[Aad]FLQRSSF[Sar]A[NMeI]LSSTEVGSNT[Hyp]-NH2
modifications: disulfide 3-8
SMILES: CC[C@H](C)[C@@H](C(=O)N[C@@H](CC(C)C)C(=O)N[C@@H](CO)C(=O)N[C@@H](CO)C(=O)N[C@H](C(=O)N[C@@H](CCC(=O)O)C(=O)N[C@H](C(=O)NCC(=O)N[C@@H](CO)C(=O)N[C@@H](CC(N)=O)C(=O)N[C@H](C(=O)N1C[C@H](O)C[C@H]1C(N)=O)[C@@H](C)O)C(C)C)[C@@H](C)O)N(C)C(=O)[C@H](C)NC(=O)CN(C)C(=O)[C@H](Cc1ccccc1)NC(=O)[C@H](CO)NC(=O)[C@H](CO)NC(=O)[C@H](CCCNC(=N)N)NC(=O)[C@H](CCC(N)=O)NC(=O)[C@H](CC(C)C)NC(=O)[C@H](Cc1ccccc1)NC(=O)[C@H](CCCC(=O)O)NC(=O)[C@H](C)NC(=O)[C@H](CC(C)C)NC(=O)[C@H](CCCNC(=N)N)NC(=O)[C@H](CCC(=O)O)NC(=O)[C@@H](NC(=O)[C@H](C)NC(=O)[C@@H]1CSSC[C@H](NC(=O)[C@H](CCCNC(=N)N)NC(=O)CC[C@H](NC(=O)CCCCCCCCCCCCCCCCCCC(=O)O)C(=O)O)C(=O)NCC(=O)N[C@@H]([C@@H](C)O)C(=O)N[C@@H](C)C(=O)N[C@@H]([C@@H](C)O)C(=O)N1)[C@@H](C)O
- hAMYR3 EC50 (nM); cAMP induction [1]: 0.08 nM
- hAMYR3 EC50 (nM); cAMP induction [2]: 0.08 nM
